The record followed here is US20180086836A1 (GLENMARK PHARMACEUTICALS S A, published 2018).

In one experiment the target is T1, mouse CCR6 (mouse, UniProt O54689 1-367).
T1 construct: also called mmCCR6; murine CCR6
T1 sequence: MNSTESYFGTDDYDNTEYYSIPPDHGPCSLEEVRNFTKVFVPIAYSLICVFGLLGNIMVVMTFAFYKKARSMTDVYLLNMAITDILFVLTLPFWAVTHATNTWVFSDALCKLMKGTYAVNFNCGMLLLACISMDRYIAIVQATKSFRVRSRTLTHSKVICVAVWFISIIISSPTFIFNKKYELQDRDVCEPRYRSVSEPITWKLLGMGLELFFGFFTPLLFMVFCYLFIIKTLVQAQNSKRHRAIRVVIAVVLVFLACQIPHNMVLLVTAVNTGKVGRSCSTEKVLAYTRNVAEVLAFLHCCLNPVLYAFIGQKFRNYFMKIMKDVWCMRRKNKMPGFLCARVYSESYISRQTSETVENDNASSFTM
Description: not given; premise of the human/mouse hybrid mapping.

A further experiment addresses T2, hsCCR6/mmECL2 (human/mouse hybrid, UniProt P51684 1-374).
T2 construct: also called second mutant; pT1-hsCCR6/mmECL2
T2 chain: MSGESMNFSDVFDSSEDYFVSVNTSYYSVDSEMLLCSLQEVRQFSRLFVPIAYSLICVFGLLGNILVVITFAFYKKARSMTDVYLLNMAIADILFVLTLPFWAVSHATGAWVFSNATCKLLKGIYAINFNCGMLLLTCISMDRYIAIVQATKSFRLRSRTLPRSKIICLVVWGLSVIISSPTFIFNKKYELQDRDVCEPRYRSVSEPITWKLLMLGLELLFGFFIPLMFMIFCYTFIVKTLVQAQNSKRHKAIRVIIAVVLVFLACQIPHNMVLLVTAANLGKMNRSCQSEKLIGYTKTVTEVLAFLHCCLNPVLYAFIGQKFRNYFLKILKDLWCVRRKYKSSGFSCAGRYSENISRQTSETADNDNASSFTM
Kind of experiment: flow cytometry on transfected cells (Human Nter, only loop 2 drawn black as murine), 10 µg/ml, PE-labelled secondary antibody. How it is done: (§1) Binding of the chimeric 4H11 antibody to human/mouse CCR6 hybrid constructs was evaluated by flow cytometry. Human/mouse CCR6 transfectants were counted and 2×10⁵ cells were incubated with 10 μg/ml of chimeric 4H11 antibody. Binding activity of 4H11 was detected with anti-human IgG-PE. To evaluate good expression of the human/mouse chimera on cells, two commercial antibodies directed against human and mouse CCR6 were used. Histogram plots show the geometric mean of fluorescence intensity (Y-axis) measured by flow cytometry
(§2) Binding of MAb to the surface of CCR6 transfected CHO cells was assessed using flow cytometry. 2×10⁵ cells were distributed in a 96 well V bottom plate and centrifuged for three minutes at 1300 rpm. Cells were collected and incubated with the appropriate mAb at a final concentration of 10 μg/ml in a volume of 50 μl in FACS buffer. Cells were incubated for 30 minutes on ice, washed twice and resuspended in 50 μl of PE-labelled secondary antibody diluted at 1/200 in FACS buffer. Cells were incubated for 15 minutes on ice, washed once, resuspended in 400 μl of FACS buffer and analyzed on the FACS instrument (Cyan, Beckman Coulter) in channel FL-2.
Background: A flow cytometer gives signals particle by particle.

For another experiment, the target named is T3, hsCCR6/mmECL3 (human/mouse hybrid, UniProt P51684 1-374).
T3 construct: also called third mutant; pT1-hsCCR6/mmECL3
T3 chain: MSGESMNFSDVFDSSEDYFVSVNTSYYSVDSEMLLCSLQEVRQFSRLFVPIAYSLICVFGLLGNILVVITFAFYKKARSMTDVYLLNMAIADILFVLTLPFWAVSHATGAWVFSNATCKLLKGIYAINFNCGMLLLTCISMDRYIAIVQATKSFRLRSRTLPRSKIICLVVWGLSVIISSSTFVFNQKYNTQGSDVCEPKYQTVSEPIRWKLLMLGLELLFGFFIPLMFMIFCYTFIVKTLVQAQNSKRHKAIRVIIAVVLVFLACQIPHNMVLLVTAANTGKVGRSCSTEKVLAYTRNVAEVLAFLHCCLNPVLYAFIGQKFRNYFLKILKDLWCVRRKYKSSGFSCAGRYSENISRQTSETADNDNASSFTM
Description: flow cytometry on transfected cells (Human Nter, only loop 3 drawn black as murine), 10 µg/ml, PE-labelled secondary antibody. The protocol: as §1, §2

A further experiment concerns the target T4, hsCCR6/mmN-term (human/mouse hybrid, UniProt P51684 36-374).
T4 construct: also called mutant 4; human CCR6 receptor containing a mouse N-terminal region
T4 chain: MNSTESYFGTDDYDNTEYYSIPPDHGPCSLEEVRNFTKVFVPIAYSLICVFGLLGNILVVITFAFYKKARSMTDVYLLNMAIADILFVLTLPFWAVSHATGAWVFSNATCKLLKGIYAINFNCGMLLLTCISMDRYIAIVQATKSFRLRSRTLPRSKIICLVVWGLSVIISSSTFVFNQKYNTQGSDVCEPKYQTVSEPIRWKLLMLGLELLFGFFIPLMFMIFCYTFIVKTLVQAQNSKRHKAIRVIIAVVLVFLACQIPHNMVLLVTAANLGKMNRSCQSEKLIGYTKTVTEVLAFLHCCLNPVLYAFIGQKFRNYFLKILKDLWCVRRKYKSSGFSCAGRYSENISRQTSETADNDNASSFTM
Kind of experiment: flow cytometry on transfected cells (Murine Nter, Human loops 1-3), PE-labelled secondary antibody. How it is done:
as §1, §2

The target in another experiment is T5, hsCCR6/mmECL1 (human/mouse hybrid, UniProt P51684 1-374).
T5 construct: also called first mutant; pT1-hsCCR6/mmECL1
T5 chain: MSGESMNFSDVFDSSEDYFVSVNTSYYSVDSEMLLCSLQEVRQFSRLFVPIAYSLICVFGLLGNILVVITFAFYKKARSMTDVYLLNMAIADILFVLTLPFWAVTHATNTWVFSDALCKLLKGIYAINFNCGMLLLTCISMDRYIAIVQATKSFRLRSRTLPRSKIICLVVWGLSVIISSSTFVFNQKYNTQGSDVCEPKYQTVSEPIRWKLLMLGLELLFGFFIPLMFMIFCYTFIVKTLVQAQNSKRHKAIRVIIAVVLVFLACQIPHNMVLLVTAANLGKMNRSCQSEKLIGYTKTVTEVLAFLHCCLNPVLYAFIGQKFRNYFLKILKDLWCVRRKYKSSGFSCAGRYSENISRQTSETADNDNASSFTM
Description: flow cytometry on transfected cells (Human Nter, Murine loop 1, Human loops 2 and 3), 10 µg/ml, PE-labelled secondary antibody. How it is done:
as §1, §2

The target in the next experiment is T6, mmCCR6/hsN-term (human/mouse hybrid).
T6 construct: also called mutant 5; mouse CCR6 receptor containing a human N-terminal region
T6 chain: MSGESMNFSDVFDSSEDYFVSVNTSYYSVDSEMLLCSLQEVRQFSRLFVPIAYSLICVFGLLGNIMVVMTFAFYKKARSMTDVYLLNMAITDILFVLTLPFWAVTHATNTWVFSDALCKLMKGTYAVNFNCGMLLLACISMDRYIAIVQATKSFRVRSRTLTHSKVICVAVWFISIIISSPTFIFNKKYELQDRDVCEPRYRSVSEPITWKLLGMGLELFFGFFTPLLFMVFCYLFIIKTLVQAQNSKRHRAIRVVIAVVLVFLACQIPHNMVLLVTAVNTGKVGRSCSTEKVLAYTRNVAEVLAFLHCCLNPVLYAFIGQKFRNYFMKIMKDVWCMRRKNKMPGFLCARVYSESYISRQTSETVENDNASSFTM
Kind of experiment: flow cytometry on transfected cells (Human Nter, Murine loops 1-3), 10 µg/ml, PE-labelled secondary antibody. How it is done: as §1, §2

B1: chimeric 4H11 antibody (antibody, human IgG1, kappa, V domains shown)
VH: EVKLVESGGGLVQPGGSLKLSCATSGFSFSDYYMYWIRQTPEKRLEWVAYITNGGITYYPDTVKGRFTISRDNAKNTLYLQMSRLRSEDTAMYYCTSPLRGAWFAYWGQGTLVTVSS
VL: DVIMTQSPLSLPVSLGDQASISCRSSQSIVHSNGNTYLEWYLQKPGQSPKLLIYKVSNRFSGVPDRFSGSGSGTDFTLKISRVEAEDLGLYYCFQGSHVPLTFGAGTKLEIKR
notes: also called chimeric 4H11 mAb; 4H11 chimeric antibody
With B1, the binding result in the experiment with mouse CCR6 was “no binding”; with hsCCR6/mmECL2, “binds”; with hsCCR6/mmECL3, “binds”; with hsCCR6/mmN-term, “no binding (tested: 10 µg/ml)”; with hsCCR6/mmECL1, “binds”; in the experiment with mmCCR6/hsN-term, “binds”.
